Measured values taken from article PMC3113324, “AKAP5 and AKAP12 Form Homo-oligomers” (Journal of Molecular Signaling, 2011).

How the values were obtained:
[1] = target: the molecule itself; test: SDS-PAGE (SDS-resistant oligomers); purified His-tagged proteins resolved on SDS-PAGE without urea; Coomassie staining and immunoblotting
[2] = target: the molecule itself; test: SDS-PAGE (SDS-resistant oligomers); whole-cell lysates of HEK293 cells on SDS-PAGE without urea; immunoblot with anti-HA or anti-AKAP12; cells also treated with isoproterenol (10 uM, 0, 5, 30 min), KT5720, PD98059 or Rolipram (45 min)

B1: His-tagged AKAP12 (1-840) (domain or fragment, human, UniProt Q02952 1-840, looked up)
chain: MGAGSSTEQRSPEQPPEGSSTPAEPEPSGGGPSAEAAPDTTADPAIAASDPATKLLQKNGQLSTINGVAEQDELSLQEGDLNGQKGALNGQGALNSQEEEEVIVTEVGQRDSEDVSKRDSDKEMATKSAVVHDITDDGQEETPEIIEQIPSSESNLEELTQPTESQANDIGFKKVFKFVGFKFTVKKDKTEKPDTVQLLTVKKDEGEGAAGAGDHKDPSLGAGEAASKESEPKQSTEKPEETLKREQSHAEISPPAESGQAVEECKEEGEEKQEKEPSKSAESPTSPVTSETGSTFKKFFTQGWAGWRKKTSFRKPKEDEVEASEKKKEQEPEKVDTEEDGKAEVASEKLTASEQAHPQEPAESAHEPRLSAEYEKVELPSEEQVSGSQGPSEEKPAPLATEVFDEKIEVHQEEVVAEVHVSTVEERTEEQKTEVEETAGSVPAEELVEMDAEPQEAEPAKELVKLKETCVSGEDPTQGADLSPDEKVLSKPPEGVVSEVEMLSSQERMKVQGSPLKKLFTSTGLKKLSGKKQKGKRGGGDEESGEHTQVPADSPDSQEEQKGESSASSPEEPEEITCLEKGLAEVQQDGEAEEGATSDGEKKREGVTPWASFKKMVTPKKRVRRPSESDKEDELDKVKSATLSSTESTASEMQEEMKGSVEEPKPEEPKRKVDTSVSWEALICVGSSKKRARRGSSSDEEGGPKAMGGDHQKADEAGKDKETGTDGILAGSQEHDPGQGSSSPEQAGSPTEGEGVSTWESFKRLVTPRKKSKSKLEEKSEDSIAGSGVEHSTPDTEPGKEESWVSIKKFIPGRRKKRPDGKQEQAPVEDAGPTGANEDD
notes: AKAP12, human, N-terminal fragment, residues 1-840, in pET28b(+); also called N-terminal (1-840) fragment of AKAP12; source: E. coli, purified (Ni-NTA)
For B1, the “stoichiometry N” value [1] was 2.

B2: His-tagged human AKAP12 (natural protein, UniProt Q02952 1-1782, looked up)
chain: MGAGSSTEQRSPEQPPEGSSTPAEPEPSGGGPSAEAAPDTTADPAIAASDPATKLLQKNGQLSTINGVAEQDELSLQEGDLNGQKGALNGQGALNSQEEEEVIVTEVGQRDSEDVSKRDSDKEMATKSAVVHDITDDGQEETPEIIEQIPSSESNLEELTQPTESQANDIGFKKVFKFVGFKFTVKKDKTEKPDTVQLLTVKKDEGEGAAGAGDHKDPSLGAGEAASKESEPKQSTEKPEETLKREQSHAEISPPAESGQAVEECKEEGEEKQEKEPSKSAESPTSPVTSETGSTFKKFFTQGWAGWRKKTSFRKPKEDEVEASEKKKEQEPEKVDTEEDGKAEVASEKLTASEQAHPQEPAESAHEPRLSAEYEKVELPSEEQVSGSQGPSEEKPAPLATEVFDEKIEVHQEEVVAEVHVSTVEERTEEQKTEVEETAGSVPAEELVEMDAEPQEAEPAKELVKLKETCVSGEDPTQGADLSPDEKVLSKPPEGVVSEVEMLSSQERMKVQGSPLKKLFTSTGLKKLSGKKQKGKRGGGDEESGEHTQVPADSPDSQEEQKGESSASSPEEPEEITCLEKGLAEVQQDGEAEEGATSDGEKKREGVTPWASFKKMVTPKKRVRRPSESDKEDELDKVKSATLSSTESTASEMQEEMKGSVEEPKPEEPKRKVDTSVSWEALICVGSSKKRARRGSSSDEEGGPKAMGGDHQKADEAGKDKETGTDGILAGSQEHDPGQGSSSPEQAGSPTEGEGVSTWESFKRLVTPRKKSKSKLEEKSEDSIAGSGVEHSTPDTEPGKEESWVSIKKFIPGRRKKRPDGKQEQAPVEDAGPTGANEDDSDVPAVVPLSEYDAVEREKMEAQQAQKSAEQPEQKAATEVSKELSESQVHMMAAAVADGTRAATIIEERSPSWISASVTEPLEQVEAEAALLTEEVLEREVIAEEEPPTVTEPLPENREARGDTVVSEAELTPEAVTAAETAGPLGAEEGTEASAAEETTEMVSAVSQLTDSPDTTEEATPVQEVEGGVPDIEEQERRTQEVLQAVAEKVKEESQLPGTGGPEDVLQPVQRAEAERPEEQAEASGLKKETDVVLKVDAQEAKTEPFTQGKVVGQTTPESFEKAPQVTESIESSELVTTCQAETLAGVKSQEMVMEQAIPPDSVETPTDSETDGSTPVADFDAPGTTQKDEIVEIHEENEVASGTQSGGTEAEAVPAQKERPPAPSSFVFQEETKEQSKMEDTLEHTDKEVSVETVSILSKTEGTQEADQYADEKTKDVPFFEGLEGSIDTGITVSREKVTEVALKGEGTEEAECKKDDALELQSHAKSPPSPVEREMVVQVEREKTEAEPTHVNEEKLEHETAVTVSEEVSKQLLQTVNVPIIDGAKEVSSLEGSPPPCLGQEEAVCTKIQVQSSEASFTLTAAAEEEKVLGETANILETGETLEPAGAHLVLEEKSSEKNEDFAAHPGEDAVPTGPDCQAKSTPVIVSATTKKGLSSDLEGEKTTSLKWKSDEVDEQVACQEVKVSVAIEDLEPENGILELETKSSKLVQNIIQTAVDQFVRTEETATEMLTSELQTQAHVIKADSQDAGQETEKEGEEPQASAQDETPITSAKEESESTAVGQAHSDISKDMSEASEKTMTVEVEGSTVNDQQLEEVVLPSEEEGGGAGTKSVPEDDGHALLAERIEKSLVEPKEDEKGDDVDDPENQNSALADTDASGGLTKESPDTNGPKQKEKEDAQEVELQEGKVHSESDKAITPQAQEELQKQERESAKSELTES
notes: A-kinase-anchoring protein 12 (AKAP12, gravin, SSECKS), human, full length (1-1782), calculated MW 191.5 kDa; also called gravin; SSECKS; source: E. coli, purified by gel filtration chromatography (Superose 12)
In the case of B2, the “stoichiometry N” value [1] is reported as 2.

B3: HA-AKAP12M3 (S627A, S696-698A, S772A) (natural protein, human, UniProt Q02952 1-1782, looked up)
chain: MGAGSSTEQRSPEQPPEGSSTPAEPEPSGGGPSAEAAPDTTADPAIAASDPATKLLQKNGQLSTINGVAEQDELSLQEGDLNGQKGALNGQGALNSQEEEEVIVTEVGQRDSEDVSKRDSDKEMATKSAVVHDITDDGQEETPEIIEQIPSSESNLEELTQPTESQANDIGFKKVFKFVGFKFTVKKDKTEKPDTVQLLTVKKDEGEGAAGAGDHKDPSLGAGEAASKESEPKQSTEKPEETLKREQSHAEISPPAESGQAVEECKEEGEEKQEKEPSKSAESPTSPVTSETGSTFKKFFTQGWAGWRKKTSFRKPKEDEVEASEKKKEQEPEKVDTEEDGKAEVASEKLTASEQAHPQEPAESAHEPRLSAEYEKVELPSEEQVSGSQGPSEEKPAPLATEVFDEKIEVHQEEVVAEVHVSTVEERTEEQKTEVEETAGSVPAEELVEMDAEPQEAEPAKELVKLKETCVSGEDPTQGADLSPDEKVLSKPPEGVVSEVEMLSSQERMKVQGSPLKKLFTSTGLKKLSGKKQKGKRGGGDEESGEHTQVPADSPDSQEEQKGESSASSPEEPEEITCLEKGLAEVQQDGEAEEGATSDGEKKREGVTPWASFKKMVTPKKRVRRPAESDKEDELDKVKSATLSSTESTASEMQEEMKGSVEEPKPEEPKRKVDTSVSWEALICVGSSKKRARRGAAADEEGGPKAMGGDHQKADEAGKDKETGTDGILAGSQEHDPGQGSSSPEQAGSPTEGEGVSTWESFKRLVTPRKKAKSKLEEKSEDSIAGSGVEHSTPDTEPGKEESWVSIKKFIPGRRKKRPDGKQEQAPVEDAGPTGANEDDSDVPAVVPLSEYDAVEREKMEAQQAQKSAEQPEQKAATEVSKELSESQVHMMAAAVADGTRAATIIEERSPSWISASVTEPLEQVEAEAALLTEEVLEREVIAEEEPPTVTEPLPENREARGDTVVSEAELTPEAVTAAETAGPLGAEEGTEASAAEETTEMVSAVSQLTDSPDTTEEATPVQEVEGGVPDIEEQERRTQEVLQAVAEKVKEESQLPGTGGPEDVLQPVQRAEAERPEEQAEASGLKKETDVVLKVDAQEAKTEPFTQGKVVGQTTPESFEKAPQVTESIESSELVTTCQAETLAGVKSQEMVMEQAIPPDSVETPTDSETDGSTPVADFDAPGTTQKDEIVEIHEENEVASGTQSGGTEAEAVPAQKERPPAPSSFVFQEETKEQSKMEDTLEHTDKEVSVETVSILSKTEGTQEADQYADEKTKDVPFFEGLEGSIDTGITVSREKVTEVALKGEGTEEAECKKDDALELQSHAKSPPSPVEREMVVQVEREKTEAEPTHVNEEKLEHETAVTVSEEVSKQLLQTVNVPIIDGAKEVSSLEGSPPPCLGQEEAVCTKIQVQSSEASFTLTAAAEEEKVLGETANILETGETLEPAGAHLVLEEKSSEKNEDFAAHPGEDAVPTGPDCQAKSTPVIVSATTKKGLSSDLEGEKTTSLKWKSDEVDEQVACQEVKVSVAIEDLEPENGILELETKSSKLVQNIIQTAVDQFVRTEETATEMLTSELQTQAHVIKADSQDAGQETEKEGEEPQASAQDETPITSAKEESESTAVGQAHSDISKDMSEASEKTMTVEVEGSTVNDQQLEEVVLPSEEEGGGAGTKSVPEDDGHALLAERIEKSLVEPKEDEKGDDVDDPENQNSALADTDASGGLTKESPDTNGPKQKEKEDAQEVELQEGKVHSESDKAITPQAQEELQKQERESAKSELTES
notes: AKAP12, human, with alanine substitution of the protein kinase A phosphorylation sites; source: HEK293, transfected (pcDNA3.1), in whole-cell lysate
For B3, the “stoichiometry N” value [2] was 2.

B4: His-tagged AKAP12 (840-1782) (domain or fragment, human, UniProt Q02952 840-1782, looked up)
chain: DSDVPAVVPLSEYDAVEREKMEAQQAQKSAEQPEQKAATEVSKELSESQVHMMAAAVADGTRAATIIEERSPSWISASVTEPLEQVEAEAALLTEEVLEREVIAEEEPPTVTEPLPENREARGDTVVSEAELTPEAVTAAETAGPLGAEEGTEASAAEETTEMVSAVSQLTDSPDTTEEATPVQEVEGGVPDIEEQERRTQEVLQAVAEKVKEESQLPGTGGPEDVLQPVQRAEAERPEEQAEASGLKKETDVVLKVDAQEAKTEPFTQGKVVGQTTPESFEKAPQVTESIESSELVTTCQAETLAGVKSQEMVMEQAIPPDSVETPTDSETDGSTPVADFDAPGTTQKDEIVEIHEENEVASGTQSGGTEAEAVPAQKERPPAPSSFVFQEETKEQSKMEDTLEHTDKEVSVETVSILSKTEGTQEADQYADEKTKDVPFFEGLEGSIDTGITVSREKVTEVALKGEGTEEAECKKDDALELQSHAKSPPSPVEREMVVQVEREKTEAEPTHVNEEKLEHETAVTVSEEVSKQLLQTVNVPIIDGAKEVSSLEGSPPPCLGQEEAVCTKIQVQSSEASFTLTAAAEEEKVLGETANILETGETLEPAGAHLVLEEKSSEKNEDFAAHPGEDAVPTGPDCQAKSTPVIVSATTKKGLSSDLEGEKTTSLKWKSDEVDEQVACQEVKVSVAIEDLEPENGILELETKSSKLVQNIIQTAVDQFVRTEETATEMLTSELQTQAHVIKADSQDAGQETEKEGEEPQASAQDETPITSAKEESESTAVGQAHSDISKDMSEASEKTMTVEVEGSTVNDQQLEEVVLPSEEEGGGAGTKSVPEDDGHALLAERIEKSLVEPKEDEKGDDVDDPENQNSALADTDASGGLTKESPDTNGPKQKEKEDAQEVELQEGKVHSESDKAITPQAQEELQKQERESAKSELTES
notes: AKAP12, human, C-terminal fragment, residues 840-1782, in pET28b(+); also called C-terminal (840-1782) fragment of AKAP12; source: E. coli, purified (Ni-NTA)
In the case of B4, the “stoichiometry N” value [1] is reported as 2.
